Assay results from the supplement of paper PMC7877785.
± gives the uncertainty stated by the source.

Experiment: self-splicing fitness, log relative to wild type (ln ratio); higher = more splicing; Tetrahymena group I intron in knt gene, E. coli kanamycin selection, DiMSum; sequences stand for … in CUCUCU…GGAGGGAAAAGUUAUCAGGCAUGCACCUGGUAGCUAGUCUUUAAACCAAUAGAUUGCAUCGGUUUAAAAGGCAAGACCGUCAAAUUGCGGGAAAGGGGUCAACAGCCGUUCAGUACCAAGUCUCAGGGGAAACUUUGAGAUGGCCUUGCAAAGGGUAUGGUAAUAAGCUGACGGACAUGGUCCUAACCACGCAGCCAAGUCCUAAGUCAACAGAUCUUCUGUUGAUAUGGAUGCAGUUCACAGACUAAAUGUCGGUCGGGGAAGAUGUAUUCUUCUCAUAAGAUAUAGUCGGACCUCUCCUUAAUGGGAGCUAGCGGAUGAAGUGAUGCAACACUGGAGCCGCUGGGAACUAAUUUGUAUGCGAAAGUAUAUUGAUUAGUUUUGGAGUACUCGUGGUCG
Procedure, shortened: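 Fitness was computed with DiMSum as the error-weighted combination of replicate fold changes, kanamycin versus none, each normalised to wild type. The library randomised all eight intron nucleotides of the P1ex region, with the intron placed in the knt kanamycin-resistance gene on pET-22b(+) in E. coli BL21(DE3). Six replicate transformations were grown overnight at 37°C or 30°C on LB agar with or without 25 μg/mL kanamycin, plus 100 μg/mL carbenicillin, 50 μM IPTG and 0.2% rhamnose. Pooled colonies were amplicon-sequenced on an Illumina HiSeq 2500.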

Row | Sequence | self-splicing fitness (ln) (30 °C) | self-splicing fitness (ln) (37 °C)
1 | GGUAAGCAAUAUUACGGGGC | -3.8 ± 0.32 | -2.09 ± 0.31
2 | GGUAAGCAAUAUUACGGUUA | -0.532 ± 0.12 | -0.38 ± 0.096
3 | GGUAAGCAAUAUUACGUAUA | -1.77 ± 0.21 | -1.68 ± 0.26
4 | GGUAAGCAAUAUUACGUCAA | -1.9 ± 0.26 | -1.62 ± 0.2
5 | GGUAAGCAAUAUUACGUGAC | -1.4 ± 0.076 | -1.66 ± 0.12
6 | GGUAAGCAAUAUUACGUGAG | -1.03 ± 0.079 | 0.0462 ± 0.09
7 | GGUAAGCAAUAUUACGUGGA | -2.91 ± 0.21 | -2.52 ± 0.2
8 | GGUAAGCAAUAUUACGUUCG | -0.34 ± 0.15 | -0.4 ± 0.18
9 | GGUAAGCAAUAUUACGUUGA | -1.76 ± 0.21 | -1.03 ± 0.15
10 | GGUCAGCAAUAUUACGAAGG | -0.594 ± 0.14 | -0.251 ± 0.22
11 | GGUCAGCAAUAUUACGACAC | 0.184 ± 0.32 | -0.0653 ± 0.25
12 | GGUCAGCAAUAUUACGACAU | 0.0683 ± 0.013 | 0.148 ± 0.033
13 | GGUCAGCAAUAUUACGACCA | -0.982 ± 0.16 | -0.657 ± 0.23
14 | GGUCAGCAAUAUUACGAGGC | -3.61 ± 0.3 | -2.84 ± 0.43
15 | GGUCAGCAAUAUUACGAUGC | -0.354 ± 0.091 | 0.43 ± 0.11
16 | GGUCAGCAAUAUUACGCCCU | -0.704 ± 0.14 | 0.198 ± 0.17
17 | GGUCAGCAAUAUUACGCGAU | -2.41 ± 0.18 | –
18 | GGUCAGCAAUAUUACGCGCC | 0.245 ± 0.39 | –
19 | GGUCAGCAAUAUUACGCUGC | -1.88 ± 0.25 | -3.17 ± 0.47
20 | GGUCAGCAAUAUUACGGAGC | -1.4 ± 0.18 | -0.82 ± 0.14
21 | GGUCAGCAAUAUUACGGCGG | -0.828 ± 0.049 | -0.274 ± 0.065
22 | GGUCAGCAAUAUUACGGCGU | 0.348 ± 0.11 | 0.0889 ± 0.12
23 | GGUCAGCAAUAUUACGGCUU | -1.18 ± 0.087 | -0.0465 ± 0.12
24 | GGUCAGCAAUAUUACGGGGG | – | -2.15 ± 0.34
25 | GGUCAGCAAUAUUACGGUAG | -2.15 ± 0.18 | -0.967 ± 0.19
26 | GGUCAGCAAUAUUACGGUUC | 0.308 ± 0.096 | -0.214 ± 0.1
27 | GGUCAGCAAUAUUACGUAGU | -0.367 ± 0.064 | 0.693 ± 0.075

Row | Sequence | self-splicing fitness (ln) (30 °C) | self-splicing fitness (ln) (37 °C)
28 | GGUCAGCAAUAUUACGUCAG | -3.99 ± 0.4 | -3.23 ± 0.47
29 | GGUCAGCAAUAUUACGUCCG | -0.0947 ± 0.13 | -0.124 ± 0.19
30 | GGUCAGCAAUAUUACGUCGA | -0.64 ± 0.098 | -0.54 ± 0.1
31 | GGUCAGCAAUAUUACGUCUA | -0.0881 ± 0.073 | 0.0699 ± 0.078
32 | GGUCAGCAAUAUUACGUGUG | -1.39 ± 0.069 | -0.514 ± 0.092
33 | GGUCAGCAAUAUUACGUUCC | -0.328 ± 0.24 | -0.643 ± 0.28
34 | GGUCAGCAAUAUUACGUUGA | -3.12 ± 0.27 | -1.76 ± 0.25
35 | GGUGAGCAAUAUUACGAAUG | -3.14 ± 0.29 | -2.36 ± 0.5
36 | GGUGAGCAAUAUUACGACGC | -0.546 ± 0.19 | -0.0795 ± 0.28
37 | GGUGAGCAAUAUUACGAUCC | – | -0.766 ± 0.35
38 | GGUGAGCAAUAUUACGAUUA | – | -0.938 ± 0.45
39 | GGUGAGCAAUAUUACGCGAA | -2.96 ± 0.14 | -1.65 ± 0.13
40 | GGUGAGCAAUAUUACGCGAC | -3.49 ± 0.29 | -3.12 ± 0.25
41 | GGUGAGCAAUAUUACGCGGU | – | -1.5 ± 0.42
42 | GGUGAGCAAUAUUACGCUAC | -2.34 ± 0.2 | –
43 | GGUGAGCAAUAUUACGCUGC | -3.91 ± 0.28 | -2.65 ± 0.32
44 | GGUGAGCAAUAUUACGGACG | -0.0602 ± 0.16 | 0.806 ± 0.32
45 | GGUGAGCAAUAUUACGGCCG | -1.15 ± 0.38 | -2.11 ± 0.24
46 | GGUGAGCAAUAUUACGUGAA | -1.76 ± 0.36 | -1.27 ± 0.32
47 | GGUGAGCAAUAUUACGUGCG | -0.62 ± 0.12 | -0.505 ± 0.18
48 | GGUGAGCAAUAUUACGUGUG | -3.28 ± 0.2 | -2.47 ± 0.2
49 | GGUGAGCAAUAUUACGUUAG | -3.01 ± 0.2 | -2.83 ± 0.3
50 | GGUGAGCAAUAUUACGUUAU | -3.23 ± 0.2 | -1.84 ± 0.19
51 | GGUGAGCAAUAUUACGUUUC | -3.36 ± 0.29 | -1.68 ± 0.25
52 | GGUUAGCAAUAUUACGAAUG | -0.2 ± 0.3 | -0.491 ± 0.33
53 | GGUUAGCAAUAUUACGAGAG | -2.64 ± 0.44 | -2.45 ± 0.39
54 | GGUUAGCAAUAUUACGAGCA | -0.943 ± 0.1 | -0.264 ± 0.1

Row | Sequence | self-splicing fitness (ln) (30 °C) | self-splicing fitness (ln) (37 °C)
55 | GGUUAGCAAUAUUACGAUGA | -0.915 ± 0.12 | -0.286 ± 0.13
56 | GGUUAGCAAUAUUACGAUUG | -1.56 ± 0.19 | -1.1 ± 0.21
57 | GGUUAGCAAUAUUACGCCCA | -0.993 ± 0.27 | -1.13 ± 0.3
58 | GGUUAGCAAUAUUACGCUAU | -4.15 ± 0.46 | -2.72 ± 0.34
59 | GGUUAGCAAUAUUACGCUCU | -2.24 ± 0.18 | -0.596 ± 0.17
60 | GGUUAGCAAUAUUACGCUUA | -1.58 ± 0.13 | -0.641 ± 0.12
61 | GGUUAGCAAUAUUACGGACU | – | -1.31 ± 0.23
62 | GGUUAGCAAUAUUACGGAGC | -2.27 ± 0.24 | -1.43 ± 0.29
63 | GGUUAGCAAUAUUACGGAGG | -3.02 ± 0.2 | -2.78 ± 0.18
64 | GGUUAGCAAUAUUACGGCAA | 0.963 ± 0.39 | -0.363 ± 0.27
65 | GGUUAGCAAUAUUACGGCAG | -1.83 ± 0.19 | -1.43 ± 0.21
66 | GGUUAGCAAUAUUACGGUAU | -1.55 ± 0.11 | -0.531 ± 0.11
67 | GGUUAGCAAUAUUACGGUGU | -2.18 ± 0.11 | -0.973 ± 0.15
68 | GGUUAGCAAUAUUACGUAUA | -1.45 ± 0.14 | -1.24 ± 0.19
69 | GGUUAGCAAUAUUACGUCAG | -3.16 ± 0.47 | –
70 | GGUUAGCAAUAUUACGUCUG | -2.1 ± 0.14 | -0.405 ± 0.11
71 | GGUUAGCAAUAUUACGUGAU | -2.18 ± 0.19 | -1.14 ± 0.2
72 | GUAAAGCAAUAUUACGAUGC | -0.312 ± 0.11 | -0.105 ± 0.11
73 | GUAAAGCAAUAUUACGCAAC | – | -0.263 ± 0.42
74 | GUAAAGCAAUAUUACGCACA | 0.186 ± 0.082 | 0.579 ± 0.11
75 | GUAAAGCAAUAUUACGCCGU | -0.433 ± 0.085 | 0.561 ± 0.11
76 | GUAAAGCAAUAUUACGCGUG | -1.05 ± 0.076 | -0.992 ± 0.08
77 | GUAAAGCAAUAUUACGCUUU | -3.46 ± 0.23 | -1.8 ± 0.27
78 | GUAAAGCAAUAUUACGGACA | -0.403 ± 0.085 | 0.623 ± 0.12
79 | GUAAAGCAAUAUUACGGCAG | -1.5 ± 0.15 | -2.25 ± 0.3
